From patent US20150168399A1 (INSERM INSTITUT NATIONAL DE LA SANTE ET DE LA RECHERCHE …, published 2015)
Changes are numbered by the printed parent chain. In names and notes the source's numbering stands. Each block holds one molecule with its values, some of them ahead of it.

Columns and labels:
[1] = target: recombinant human endocan (Human active Endocan 1-165, SEQ ID NO: 1) (human) (UniProt Q9NQ30); assay: cell-based or functional assay
[2] = target: human leukocyte integrin LFA-1 (CD11a/CD18) on Jurkat cells or human NK cells (human) (UniProt P20701); assay: cell-based or functional assay
[3] = target: T1, recombinant human endocan (Human active Endocan 1-165, SEQ ID NO: 1)
T1 chain: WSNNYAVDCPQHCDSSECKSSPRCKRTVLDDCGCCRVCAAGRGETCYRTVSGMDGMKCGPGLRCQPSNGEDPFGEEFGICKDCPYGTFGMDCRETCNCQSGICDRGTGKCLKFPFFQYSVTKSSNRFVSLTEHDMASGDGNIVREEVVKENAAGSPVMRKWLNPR

[4] = target: T2, human leukocyte integrin LFA-1 (CD11a/CD18) on Jurkat cells or human NK cells (human, UniProt P20701 26-1170; P05107 23-769); assay: co-immunoprecipitation from Jurkat lysates with HI111 and mab24
T2 construct: whole, on cells; also called CD11a/CD18 integrin; endocan's receptor
Protocol: FIG. 4B: Non glycanable endocan is co-immunoprecipitated with anti-LFA-1 mabs. Bound endocan from 20 to 40×10⁶ Jurkat cells were incubated with a mab against endocan (MEC36), mabs against LFA-1 (HI111 and mab24), and anti-CD3 mab as control antibody. Bound endocan is expressed in pg per 10⁶ cells.
Immunoprecipitation of Jurkat lysates containing endocan or non glycanated endocan S137A/E was performed as previously described in Bechard D et al (J Immunol. 2001; 167:3099-3106) using anti-CD11 a mabs HI111 (BD Biosciences), and mab24 (a generous gift of Dr Nancy Hogg from Leukocyte Adhesion Laboratory, Cancer Research UK, London Research Institute, London, UK).

human leukocyte integrin LFA-1 (CD11a/CD18) on Jurkat cells or human NK cells (human), sequence (P20701 26-1170, chain 1 of 2): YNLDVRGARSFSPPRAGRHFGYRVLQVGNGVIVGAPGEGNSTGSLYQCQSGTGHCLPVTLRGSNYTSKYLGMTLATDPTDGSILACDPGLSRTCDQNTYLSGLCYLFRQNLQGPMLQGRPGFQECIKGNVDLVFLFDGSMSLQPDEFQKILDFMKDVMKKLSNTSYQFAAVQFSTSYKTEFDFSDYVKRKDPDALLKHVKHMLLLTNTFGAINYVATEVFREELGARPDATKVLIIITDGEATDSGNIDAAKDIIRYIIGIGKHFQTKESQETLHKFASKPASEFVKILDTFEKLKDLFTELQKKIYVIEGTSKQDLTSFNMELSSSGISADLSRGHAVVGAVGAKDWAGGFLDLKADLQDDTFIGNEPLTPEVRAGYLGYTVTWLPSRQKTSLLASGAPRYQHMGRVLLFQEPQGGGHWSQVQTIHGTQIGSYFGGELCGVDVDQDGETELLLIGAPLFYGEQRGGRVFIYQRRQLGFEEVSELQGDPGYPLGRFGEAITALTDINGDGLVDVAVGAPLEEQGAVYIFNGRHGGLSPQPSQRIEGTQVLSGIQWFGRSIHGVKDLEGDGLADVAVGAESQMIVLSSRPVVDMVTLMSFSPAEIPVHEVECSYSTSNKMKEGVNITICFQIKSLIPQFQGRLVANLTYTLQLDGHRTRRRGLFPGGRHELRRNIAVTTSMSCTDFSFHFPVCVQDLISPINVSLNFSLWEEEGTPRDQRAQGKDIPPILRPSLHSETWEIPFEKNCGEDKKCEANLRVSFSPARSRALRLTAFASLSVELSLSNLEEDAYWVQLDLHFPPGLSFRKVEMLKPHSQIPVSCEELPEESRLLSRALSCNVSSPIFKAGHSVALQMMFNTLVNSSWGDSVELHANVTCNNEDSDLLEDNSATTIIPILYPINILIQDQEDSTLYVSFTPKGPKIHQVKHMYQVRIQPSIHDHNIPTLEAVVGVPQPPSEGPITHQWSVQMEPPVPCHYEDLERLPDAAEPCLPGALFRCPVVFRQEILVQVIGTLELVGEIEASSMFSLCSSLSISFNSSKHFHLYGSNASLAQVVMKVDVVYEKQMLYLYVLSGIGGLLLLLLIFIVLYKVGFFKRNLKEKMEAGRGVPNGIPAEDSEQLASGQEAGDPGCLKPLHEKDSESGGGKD
human leukocyte integrin LFA-1 (CD11a/CD18) on Jurkat cells or human NK cells (human), sequence (P05107 23-769, chain 2 of 2, further chain): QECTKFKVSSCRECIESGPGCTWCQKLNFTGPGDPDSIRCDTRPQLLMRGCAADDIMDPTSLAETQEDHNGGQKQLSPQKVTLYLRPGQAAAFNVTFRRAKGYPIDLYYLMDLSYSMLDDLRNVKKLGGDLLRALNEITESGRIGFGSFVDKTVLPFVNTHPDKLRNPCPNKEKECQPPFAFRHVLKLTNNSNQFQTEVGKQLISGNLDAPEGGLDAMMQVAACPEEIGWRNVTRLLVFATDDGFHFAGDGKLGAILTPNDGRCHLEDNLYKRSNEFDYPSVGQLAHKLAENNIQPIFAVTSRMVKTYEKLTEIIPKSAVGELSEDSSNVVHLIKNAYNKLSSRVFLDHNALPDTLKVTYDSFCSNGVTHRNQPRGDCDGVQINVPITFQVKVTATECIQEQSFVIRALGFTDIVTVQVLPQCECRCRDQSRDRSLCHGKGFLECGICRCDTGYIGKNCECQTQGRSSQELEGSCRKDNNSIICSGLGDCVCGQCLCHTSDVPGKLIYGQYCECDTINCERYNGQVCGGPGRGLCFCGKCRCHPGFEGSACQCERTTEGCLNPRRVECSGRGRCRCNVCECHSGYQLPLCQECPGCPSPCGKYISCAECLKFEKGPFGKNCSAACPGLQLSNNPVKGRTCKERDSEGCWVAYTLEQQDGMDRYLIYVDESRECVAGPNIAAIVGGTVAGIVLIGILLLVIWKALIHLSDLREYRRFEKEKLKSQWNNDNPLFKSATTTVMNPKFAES
T2 sequence (P20701 26-1170, chain 1 of 2): as the sequence (P20701 26-1170, chain 1 of 2) above
T2 sequence (P05107 23-769, chain 2 of 2): as the sequence (P05107 23-769, chain 2 of 2, further chain) above

loss of the 50 kDa band of endocan [1]: 1 µg/mL
Molecule: purified proteinase 3 (Sigma) (from UniProt P24158 28-248) (enzyme)

decrease in transendothelial migration of NK cells through TNF-stimulated HUVEC [2]: 82%
Molecule: monoclonal anti-human LFA-1 clone HI111 (antibody)

B1: purified cathepsin G (Sigma) (protein)
chain: IIGGRESRPHSRPYMAYLQIQSPAGQSRCGGFLVREDFVLTAAHCWGSNINVTLGAHNIQRRENTQQHITARRAIRHPQYNQRTIQNDIMLLQLSRRVRRNRNVNPVALPRAQEGLRPGTLCTVAGWGRVSMRRGTDTLREVQLRVQRDRQCLRIFGSYDPRRQICVGDRRERKAAFKGDSGGPLLCNNVAHGIVSYGKSSGVPPEVFTRVSSFLPWIRTTMRS
minimal concentration of cathepsin G required to cleave completely endocan in 24 h [3]: 0.01 µg/mL
reduction of the detection of MEP14-bound endocan after two hours with cathepsin G at 37° C. [3]: from 70% to 100%

binding result [4]: binds
B2: non glycanable endocan mutant (S137A/endocan) (ligand)
chain: T1 chain with S137A
notes: Produced in 293 cells; lacks the glycan chain; also called non glycanated endocan S137A/E

B3: purified elastase (Sigma) (protein)
chain: IVGGRRARPHAWPFMVSLQLRGGHFCGATLIAPNFVMSAAHCVANVNVRAVRVVLGAHNLSRREPTRQVFAVQRIFENGYDPVNLLNDIVILQLNGSATINANVQVAQLPAQGRRLGNGVQCLAMGWGLLGRNRGIASVLQELNVTVVTSLCRRSNVCTLVRGRQAGVCFGDSGSPLVCNGLIHGIASFVRGGCASGLYPDAFAPVAQFVNWIDSIIQ
minimal concentration of elastase required for near complete degradation of endocan [3]: 0.1 µg/mL
